What all share (assay): SPR
For orientation: Surface plasmon resonance follows binding to a sensor surface in real time, without labels.

Test [1] addresses trastuzumab produced in CHO-K1 cells (human (detected with anti human IgG (H + L))).
The target in test [2] is trastuzumab produced in CHO-gmt13 cells (human (detected with anti human IgG (H + L))).
Test [3] deals with trastuzumab produced in CHO-gmt21 cells (human (detected with anti human IgG (H + L))).
In test [4] the target is trastuzumab produced in CHO-gmt8 cells (human (detected with anti human IgG (H + L))).
The target in test [5] is trastuzumab produced in CHO-gmt9 cells (human (detected with anti human IgG (H + L))).

Usually Kd stands for the free concentration of one partner at which half of the binding sites on the other are occupied at equilibrium, for simple one-to-one binding.

Regarding “extracellular domain of human FcγRIIIa with a His-tag (from UniProt P08637 17-208) (receptor)”, the dissociation constant Kd in test [1] stood at 560 nM; in test [2] it was 780 nM; in test [3], 799 nM; in test [4], 200 nM; in test [5] it was 80 nM.

These data come from paper PMC11452509.
